Patent US7045537B1, “Protein structures and protein fibres” (The University of Sussex, priority 1999, dated 2006)
“And” between values parts separate entries of the source, which are not always exact repeats. Equal entries are not always repeated.

T1: SAF-p2A
T1 sequence (peptide): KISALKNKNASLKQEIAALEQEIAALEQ

T2: SAF-p2B (CH3CO at the N terminus and NH2 at the C terminus)
T2 peptide: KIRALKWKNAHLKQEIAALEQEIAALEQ

T3: SAF-p2C
T3 construct: Designed peptide, uncapped ends
T3 peptide: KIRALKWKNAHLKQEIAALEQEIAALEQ

T4: SAF-p2D
T4 construct: also called Self-Assembling Fibre peptide 2
T4 peptide: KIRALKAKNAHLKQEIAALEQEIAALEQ


Experiments:
SAF-p2A [1] = target: T1, SAF-p2A; assay: circular dichroism of the peptide mixture, 100 µM
SAF-p2B [2] = target: T2, SAF-p2B; assay: thermal melt by circular dichroism of the peptide mixture, 100 µM (expect 38° C. if no interaction)
SAF-p2C [3] = target: T3, SAF-p2C; assay: circular dichroism of the peptide mixture, 10 µM
Procedure: (§1) Peptide samples were incubated at 5° C. in 10 mM MOPS (3-(N-Morpholino)propanesulfonic acid), pH 7. Sample concentrations were determined from their UV absorbance at 280 nm (SAF-p1) and 214 nm (SAF-p2). After baseline correction, ellipticities in mdeg were converted to molar ellipticities (deg cm^2 dmol-res^-1) by normalizing for the concentration of peptide bonds. Data were recorded in a cell of 1 mm path length by integrating the signal for 5s (and 1s for the fresh 100 µM peptide mixture) every nm in the range 205–260 nm. CD measurements were made using a JASCO J-715 spectropolarimeter fitted with a Peltier temperature controller.

SAF-p2C [4] = target: T3, SAF-p2C; assay: circular dichroism of the peptide mixture, 100 µM
Procedure: as §1

SAF-p2B [5] = target: T2, SAF-p2B; assay: circular dichroism of the peptide mixture, 100 µM
Procedure: as §1

SAF-p2A [6] = target: T1, SAF-p2A; assay: circular dichroism of the peptide mixture, 10 µM
SAF-p2A [7] = target: T1, SAF-p2A; assay: thermal melt by circular dichroism of the peptide mixture, 100 µM
SAF-p2D [8] = target: T4, SAF-p2D; assay: circular dichroism of the peptide mixture, 10 µM
Procedure: as §1

SAF-p2D [9] = target: T4, SAF-p2D; assay: circular dichroism of the peptide mixture, 100 µM
Procedure: as §1

SAF-p2B [10] = target: T2, SAF-p2B; assay: circular dichroism of the peptide mixture, 10 µM
Procedure: as §1

SAF-p2B [11] = target: T2, SAF-p2B; assay: thermal melt by circular dichroism of the peptide mixture, 100 µM (expect 36° C. if no interaction)
SAF-p2B [12] = target: T2, SAF-p2B; assay: thermal melt by circular dichroism of the peptide mixture, 10 µM (expect 19° C. if no interaction)

Row | Binder | % α-helix of the mixture (CD) (SAF-p2A [1]) [%] | Tm of the mixture (CD) (SAF-p2B [2]) | % α-helix of the mixture (CD) (SAF-p2C [3]) [%] | % α-helix of the mixture (CD) (SAF-p2C [4]) [%] | % α-helix of the mixture (CD) (SAF-p2B [5]) [%] | % α-helix of the mixture (CD) (SAF-p2A [6]) [%] | Tm of the mixture (CD) (SAF-p2A [7]) [° C.] | % α-helix of the mixture (CD) (SAF-p2D [8]) [%] | % α-helix of the mixture (CD) (SAF-p2D [9]) [%] | % α-helix of the mixture (CD) (SAF-p2B [10]) [%] | Tm of the mixture (CD) (SAF-p2B [11]) [° C.] | Tm of the mixture (CD) (SAF-p2B [12]) [° C.]
1 | KIAALKQKIAALKQEIDALEYENDALEQ (Prototype designed peptide, uncapped ends) [SAF-p1A] | 40 | ~36 ° C. and ~46 ° C. | ~20 | ~80 | ~65 | 20 | 30 | – | – | – | – | –
2 | KIAALKQKIASLKQEIDALEYENDALEQ (also called Self-Assembling Fibre peptide 1) [SAF-p1C] | – | – | ~25 | ~65 | – | – | – | ~25 | ~85 | – | – | –
3 | Ac-KIAALKQKIAALKQEIDALEYENDALEQ-NH2 (Chemically capped form of SAF-p1A) [SAF-p1B] | – | – | – | – | ~80 | – | – | – | – | ~70 | ~35 | ~25
